Ends that are not written are not given here.
What was measured:
[1] = biological target: wild-type human GLP-1 receptor (human, UniProt P43220 24-463); test: cell-based or functional assay
[2] = biological target: hyperactive human GLP-1 receptor variant (human); test: cell-based or functional assay

Row | Binder | cAMP production (radioimmunoassay), EC50 [1] [µM] | cAMP production, fold potency increase against GLP-1 (7-20) amide without biphenylalanine [1] [fold] | cAMP production (radioimmunoassay), EC50 [2] [µM] | cAMP production, fold higher potency against GLP-1 (7-20) amide -bpa at the hyperactive receptor [2] [fold] | cAMP production (radioimmunoassay), half maximal excitatory concentration (EC50) [1] [µM] | cAMP production, fold potency increase against the same peptide at the wild type receptor [2] [fold]
1 | HAEGTFTSDVSSYL-biphenylalanine (not fully specified) [GLP-1 (7-20) carboxy-terminal tethered with biphenylalanine] | 11 | 22 | 2 | 10 |  | 
2 | HAEGTFTSDVSSYL-NH2 [GLP-1 (7-20) amide] |  |  | 24 |  | 240 | 10

Source: patent US20100041612A1 (published 2010)
